# Measurements from publication doi:10.1101/2025.03.06.641827 (bioRxiv, 2025).
# Key:
# [1] = target: the molecule itself; assay: crystal structure
# [2] = target: the molecule itself; assay: SEC
# [3] = target: the molecule itself; assay: crystal structure; remark: listed apart in the source
Protein,stoichiometry N [2],other results
"Escherichia coli threonine dehydratase (IlvA), full length, His-tagged (enzyme, UniProt P04968 1-514, looked up, PLP covalently bound to Lys62) MADSQPLSGAPEGAEYLRAVLRAPVYEAAQVTPLQKMEKLSSRLDNVILVKREDRQPVHSFKLRGAYAMMAGLTEEQKAHGVITASAGNHAQGVAFSSARLGVKALIVMPTATADIKVDAVRGFGGEVLLHGANFDEAKAKAIELSQQQGFTWVPPFDHPMVIAGQGTLALELLQQDAHLDRVFVPVGGGGLAAGVAVLIKQLMPQIKVIAVEAEDSACLKAALDAGHPVDLPRVGLFAEGVAVKRIGDETFRLCQEYLDDIITVDSDAICAAMKDLFEDVRAVAEPSGALALAGMKKYIALHNIRGERLAHILSGANVNFHGLRYVSERCELGEQREALLAVTIPEEKGSFLKFCQLLGGRSVTEFNYRFADAKNACIFVGVRLSRGLEERKEILQMLNDGGYSVVDLSDDEMAKLHVRYMVGGRPSHPLQERLYSFEFPESPGALLRFLNTLGTYWNISLFHYRSHGTDYGRVLAAFELGDHEPDFETRLNELGYDCHDETNNPAFRFFLAG",–,stoichiometry N [1]: 4
"Staphylococcus aureus IlvA regulatory domain (residues 336-422) (domain or fragment, UniProt Q2FF63 336-422, looked up) EMKHYFILNFPQRPGALREFVNDVLGPQDDITKFEYLKKSSQNTGTVIIGIQLKDHDDLIQLKQRVNHFDPSNIYINENKMLYSLLI",4,–
"Escherichia coli IlvA regulatory domain (amino acids 335-514) (domain or fragment, UniProt P04968 335-514, looked up) EQREALLAVTIPEEKGSFLKFCQLLGGRSVTEFNYRFADAKNACIFVGVRLSRGLEERKEILQMLNDGGYSVVDLSDDEMAKLHVRYMVGGRPSHPLQERLYSFEFPESPGALLRFLNTLGTYWNISLFHYRSHGTDYGRVLAAFELGDHEPDFETRLNELGYDCHDETNNPAFRFFLAG",2,–
"Escherichia coli IlvA regulatory domain (335-514) F352A mutant (domain or fragment, UniProt P04968 335-514, looked up) EQREALLAVTIPEEKGSALKFCQLLGGRSVTEFNYRFADAKNACIFVGVRLSRGLEERKEILQMLNDGGYSVVDLSDDEMAKLHVRYMVGGRPSHPLQERLYSFEFPESPGALLRFLNTLGTYWNISLFHYRSHGTDYGRVLAAFELGDHEPDFETRLNELGYDCHDETNNPAFRFFLAG",–,stoichiometry N [3]: 2
"Staphylococcus aureus threonine dehydratase (IlvA), full length (residues 1-422) (enzyme, UniProt Q2FF63 1-422, looked up) MTVKTTVSTKDIDEAFLRLKDIVKETPLQLDHYLSQKYDCKVYLKREDLQWVRSFKLRGAYNAISVLSDEAKSKGITCASAGNHAQGVAYTAKKLNLNAVIFMPVTTPLQKVNQVKFFGNSNVEVVLTGDTFDHCLAEALTYTSEHQMNFIDPFNNVHTISGQGTLAKEMLEQAKSDNVNFDYLFAAIGGGGLISGISTYFKTYSPTTKIIGVEPSGASSMYESVVVNNQVVTLPNIDKFVDGASVARVGDITFEIAKENVDDYVQVDEGAVCSTILDMYSKQAIVAEPAGALSVSALENYKDHIKGKTVVCVISGGNNDINRMKEIEERSLLYEEMKHYFILNFPQRPGALREFVNDVLGPQDDITKFEYLKKSSQNTGTVIIGIQLKDHDDLIQLKQRVNHFDPSNIYINENKMLYSLLI",8,–
